From publication PMC11079029, “Intramolecular autoinhibition regulates the selectivity of PRPF40A tandem WW domains for proline-rich motifs” (Nature Communications, 2024)
“And” between values parts separate entries of the source, which are not always exact repeats. Equal values may be shown once.

How the values were obtained:
Conditions in all cases: both partners purified
[1] = biological target: T1, GB1-polyproline peptide P22; assay: ITC; MicroCal PEAQ-ITC, 25 °C, 20 mM sodium phosphate pH 6.5, 100 mM NaCl; GB1-polyproline peptides in the cell, WW12 in the syringe (N sites >1: more than one WW tandem on one peptide); one-site model; apparent
T1 construct: common N-terminal residues after the TEV site (TEVsite-GAMSGS-peptide-SGSN); 22 consecutive prolines; common C-terminal residues; pET24 vector with 6xHis, GB1 and TEV site as N-terminal cassette, not cleaved; also called polyproline length 22; source: E. coli BL21(DE3), purified (Ni-NTA, SEC); not shown: GB1, N-terminal, kept
T1 chain: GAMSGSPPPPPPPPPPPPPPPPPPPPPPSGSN

[2] = biological target: T2, GB1-polyproline peptide P25; assay: as above
T2 construct: common N-terminal residues after the TEV site (TEVsite-GAMSGS-peptide-SGSN); 25 consecutive prolines; common C-terminal residues; pET24 vector with 6xHis, GB1 and TEV site as N-terminal cassette, not cleaved; also called polyproline length 25; source: E. coli BL21(DE3), purified (Ni-NTA, SEC); not shown: GB1, N-terminal, kept
T2 chain: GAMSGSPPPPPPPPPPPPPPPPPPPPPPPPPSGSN

[3] = biological target: T3, GB1-polyproline peptide P29; assay: as above
T3 construct: common N-terminal residues after the TEV site (TEVsite-GAMSGS-peptide-SGSN); 29 consecutive prolines; common C-terminal residues; pET24 vector with 6xHis, GB1 and TEV site as N-terminal cassette, not cleaved; also called polyproline length 29; source: E. coli BL21(DE3), purified (Ni-NTA, SEC); not shown: GB1, N-terminal, kept
T3 chain: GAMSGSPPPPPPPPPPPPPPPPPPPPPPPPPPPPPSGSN

[4] = biological target: T4, GB1-SF1 Pro BC (residues 468-594) (UniProt Q15637 468-594); assay: ITC; MicroCal PEAQ-ITC, 25 °C, 20 mM sodium phosphate pH 6.5, 100 mM NaCl; GB1-tagged SF1/SF3A1 constructs in the syringe, WW12 in the cell (N sites <1: more than one WW tandem on one construct); one-site model; apparent
T4 construct: SF1 (splicing factor 1) residues 468-594; pET24 vector with 6xHis, GB1 and TEV site as N-terminal cassette, not cleaved; source: E. coli BL21(DE3), purified (Ni-NTA, SEC); not shown: GB1, N-terminal, kept
T4 sequence (looked up): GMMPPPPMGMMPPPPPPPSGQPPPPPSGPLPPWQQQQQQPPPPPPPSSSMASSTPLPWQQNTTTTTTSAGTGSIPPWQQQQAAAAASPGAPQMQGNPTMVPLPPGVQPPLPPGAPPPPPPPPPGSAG

[5] = biological target: T5, GB1-SF1 Pro CD (residues 539-639) (UniProt Q15637 539-639); assay: as above
T5 construct: SF1 (splicing factor 1) residues 539-639; pET24 vector with 6xHis, GB1 and TEV site as N-terminal cassette, not cleaved; source: E. coli BL21(DE3), purified (Ni-NTA, SEC); not shown: GB1, N-terminal, kept
T5 sequence (looked up): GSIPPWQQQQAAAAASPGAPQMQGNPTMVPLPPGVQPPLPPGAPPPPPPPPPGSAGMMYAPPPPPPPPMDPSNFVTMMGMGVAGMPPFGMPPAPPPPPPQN

[6] = biological target: T6, GB1-SF1 Pro BCD (residues 468-639) (UniProt Q15637 468-639); assay: as above
T6 construct: SF1 (splicing factor 1) residues 468-639; pET24 vector with 6xHis, GB1 and TEV site as N-terminal cassette, not cleaved; source: E. coli BL21(DE3), purified (Ni-NTA, SEC); not shown: GB1, N-terminal, kept
T6 sequence (looked up): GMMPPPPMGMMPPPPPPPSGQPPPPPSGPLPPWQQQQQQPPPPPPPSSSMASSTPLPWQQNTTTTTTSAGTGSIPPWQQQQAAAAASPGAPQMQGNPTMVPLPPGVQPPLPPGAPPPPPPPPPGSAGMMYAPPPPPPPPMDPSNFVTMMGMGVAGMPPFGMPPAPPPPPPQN

[7] = biological target: T7, GB1-SF1 Pro ABCD (residues 410-639) (UniProt Q15637 410-639); assay: as above
T7 construct: SF1 (splicing factor 1) residues 410-639, the complete proline-rich C-terminal region; pET24 vector with 6xHis, GB1 and TEV site as N-terminal cassette, not cleaved; also called complete C-terminal region of SF1; source: E. coli BL21(DE3), purified (Ni-NTA, SEC); not shown: GB1, N-terminal, kept
T7 sequence (looked up): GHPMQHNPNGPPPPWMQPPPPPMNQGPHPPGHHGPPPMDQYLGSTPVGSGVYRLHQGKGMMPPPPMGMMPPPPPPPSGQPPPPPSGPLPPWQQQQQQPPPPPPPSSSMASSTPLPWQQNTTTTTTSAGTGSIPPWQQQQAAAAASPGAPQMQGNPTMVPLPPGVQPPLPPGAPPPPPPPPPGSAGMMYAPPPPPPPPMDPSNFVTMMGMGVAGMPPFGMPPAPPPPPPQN

[8] = biological target: T8, GB1-SF3A1 C-ter Pro (residues 552-683) (UniProt Q15459 552-683); assay: as above
T8 construct: pET24 vector with 6xHis, GB1 and TEV site as N-terminal cassette, not cleaved; source: E. coli BL21(DE3), purified (Ni-NTA, SEC); not shown: GB1, N-terminal, kept
T8 sequence (looked up): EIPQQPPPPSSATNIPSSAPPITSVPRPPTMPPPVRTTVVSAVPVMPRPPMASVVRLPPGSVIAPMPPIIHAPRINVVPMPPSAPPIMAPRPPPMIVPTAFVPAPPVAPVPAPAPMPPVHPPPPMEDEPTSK

[9] = biological target: T9, PRPF40A N-ext-WW12 (residues 56-236) (human, UniProt O75400 56-236); assay: ITC; MicroCal PEAQ-ITC, 25 °C, 20 mM sodium phosphate pH 6.5, 100 mM NaCl; PRPF40A constructs and GB1-tagged SF1 16-mer peptides; who was in the syringe is not stated for these panels (Fig. 2B, Fig. 5C); one-site model
T9 construct: PRPF40A isoform 1, residues 56-236: N-terminal proline-rich region and both WW domains; pETM11 vector; also called Nter Ext WW12; N-terminal extended WW12 construct; source: E. coli BL21(DE3), purified (Ni-NTA, TEV cleavage, reverse Ni-NTA, SEC); not shown: His6, N-terminal, cleaved
T9 sequence (looked up): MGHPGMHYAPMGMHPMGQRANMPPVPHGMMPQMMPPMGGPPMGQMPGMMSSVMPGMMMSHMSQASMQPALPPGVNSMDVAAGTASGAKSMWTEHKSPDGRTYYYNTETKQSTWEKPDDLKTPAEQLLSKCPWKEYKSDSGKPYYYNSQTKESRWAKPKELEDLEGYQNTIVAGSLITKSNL

[10] = biological target: T10, PRPF40A N-ext-WW12 mutant (PPVP and PALPP motifs changed to alanine residues) (human, UniProt O75400 56-236, 78-81 PPVP to AAAA | 123-127 PALPP to AAAAA); assay: as above
T10 construct: PRPF40A isoform 1, residues 56-236, with the two motifs PPVP (78-81) and PALPP (123-127) changed to alanine residues; made by site-directed mutagenesis of N-ext-WW12; also called Nter Ext WW12 MUTANT; mutated version of the N-extWW12; source: E. coli BL21(DE3), purified (Ni-NTA, TEV cleavage, reverse Ni-NTA, SEC); not shown: His6, N-terminal, cleaved
T10 sequence (looked up): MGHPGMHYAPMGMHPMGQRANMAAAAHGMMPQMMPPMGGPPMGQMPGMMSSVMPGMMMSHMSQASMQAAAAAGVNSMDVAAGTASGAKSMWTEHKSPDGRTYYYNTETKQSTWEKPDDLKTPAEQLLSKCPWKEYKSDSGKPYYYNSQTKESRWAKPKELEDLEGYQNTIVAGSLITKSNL

B1: PRPF40A WW12 (tandem WW domains, residues 141-236) (domain or fragment, human, UniProt O75400 141-236, looked up)
chain: GAKSMWTEHKSPDGRTYYYNTETKQSTWEKPDDLKTPAEQLLSKCPWKEYKSDSGKPYYYNSQTKESRWAKPKELEDLEGYQNTIVAGSLITKSNL
notes: pETM11 vector (NcoI/KpnI); also called PRPF40A WW tandem; isolated WW domains; source: E. coli BL21(DE3), purified (Ni-NTA, TEV cleavage, reverse Ni-NTA, SEC); not shown: His6, N-terminal, cleaved
For B1, the “stoichiometry N” value [1] was 1.41 and 1.37 and 1.39, the “stoichiometry N” value [2] was 2.21 and 2.39 and 2.3 and the “stoichiometry N” value [3] was 2.38 and 2.56 and 2.47. The Kd [4] was 3.63 µM and 7.76 µM and 9.11 µM and 6.83 µM, the Kd [5] was 2.83 µM and 4.32 µM and 4.26 µM and 3.8 µM and the Kd [6] was 2.93 µM and 4.36 µM and 3.65 µM. The Kd [7] was 5.41 µM and 4.4 µM and 4.91 µM and the Kd [8] was 23.8 µM and 14.8 µM and 19.3 µM.

B2: GB1-SF1(575-590) 16-mer peptide, SF1 PRPF40A WW binding site (peptide)
chain: GAMSGSPPLPPGAPPPPPPPPPSGSN
notes: common N-terminal residues after the TEV site (TEVsite-GAMSGS-peptide-SGSN); SF1 (splicing factor 1) residues 575-590; common C-terminal residues; pET24 vector with 6xHis, GB1 and TEV site as N-terminal cassette, not cleaved for ITC; also called SF1_(WWbs); SF1 WWbs; source: E. coli BL21(DE3), purified (Ni-NTA, SEC); not shown: GB1, N-terminal, kept
In the case of B2, the Kd [9] is reported as 9.19 µM and 8.22 µM and 8.71 µM and the Kd [10] is reported as 2.44 µM and 1.98 µM and 2.21 µM.
